In the supplement of paper PMC5998384:

How the values were obtained:
[1] = system: HeLa Kyoto; assay: thermal stability score vs G1/S (z-score of summed log2 fold changes over temperatures); higher = more thermally stable than in G1/S
[2] = system: HeLa Kyoto; assay: solubility in G1/S (NP-40 vs SDS abundance) (log2 ratio); higher = more soluble; settings: cell cycle stage: G1/S
[3] = system: HeLa Kyoto; assay: solubility change mitosis vs G1/S (difference of NP-40 vs SDS log2 ratios) (log2 ratio difference); higher = more soluble in mitosis
[4] = system: HeLa Kyoto; assay: melting temperature (median over replicates), in situ; higher = more thermally stable
[5] = cell cycle stage: early G1 (4.5 h after nocodazole release)
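Throughout, for melting temperature (median over replicates), in situ: HeLa Kyoto cells synchronized by double thymidine or nocodazole block, proteins quantified by TMT10plex mass spectrometry, three independent biological replicates.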
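Throughout, for solubility change mitosis vs G1/S (difference of NP-40 vs SDS log2 ratios): synchronized HeLa Kyoto cells (double thymidine block for G1/S, nocodazole release for mitosis), protein amounts in NP-40 versus SDS lysates quantified by mass spectrometry, three biological replicates.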
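Throughout, for solubility in G1/S (NP-40 vs SDS abundance): HeLa Kyoto cells arrested at G1/S by double thymidine block, proteins quantified by TMT10plex mass spectrometry in mild NP-40 versus SDS extracts, three biological replicates.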
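Throughout, for thermal stability score vs G1/S (z-score of summed log2 fold changes over temperatures): synchronized HeLa Kyoto cells, proteins quantified by TMT10plex mass spectrometry, three biological replicates, mitosis taken 0.5 h after nocodazole release, G1/S directly after double thymidine block.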

| Sequence | thermal stability score [1, 5] | thermal stability score ([1]; cell cycle stage: mitosis) | solubility in G1/S (log2) [2] | solubility change mitosis (log2) [3] | melting temperature ([4]; cell cycle stage: G1/S) | melting temperature ([4]; cell cycle stage: mitosis) |
| --- | --- | --- | --- | --- | --- | --- |
| MAATASAGVPATVSEKQEFYQLLKNLINPSCMVRRQAEEIYENIPGLCKTTFLLDAVRNRRAGYEVRQMAAALLRRLLSSGFEEVYPNLPADVQRDVKIELILAVKLETHASMRKKLCDIFAVLARNLIDEDGTNHWPEGLKFLIDSIYSKNVVLWEVALHVFWHFPGIFGTQERHDLDIIKRLLDQCIQDQEHPAIRTLSARAAAAFVLANENNIALFKDFADLLPGILQAVNDSCYQDDDSVLESLVEIADTVPKYLGPYLEDTLQLSLKLCGDSRLSNLQRQLALEVIVTLSETATPMLKKHTNIIAQAVPHILAMMVDLQDDEDWVNADEMEEDDFDSNAVAAESALDRLACGLGGKVVLPMTKEHIMQMLQSPDWKYRHAGLMALSAIGEGCHQQMESILDETVNSVLLFLQDPHPRVRAAACTTLGQMATDFAPNFQKKFHETVIAALLRTMENQGNQRVQSHAASALIIFIEDCPKSLLVLYVDSMVKNLHSVLVIKLQELIRNGTKLALEQLVTTIASVADTIEEKFVPYYDIFMPSLKHIVELAVQKELKLLRGKTIECISHIGLAVGKEKFMQDASNVMQLLLKTQSDLNNMEDDDPQTSYMVSAWARMCKILGKDFQQYLPLVIEPLIKTASAKPDVALLDTQDVENMSDDDGWQFVNLGDQQSFGIKTSGLEAKATACQMLVYYAKELREGFVEYTEQVVKLMVPLLKFYFHDNVRVAAAESMPFLLECARIRGPEYLAQMWQFICDPLIKAIGTEPDTDVLSEIMNSFAKSIEVMGDGCLNDEHLEELGGILKAKLEGHFKNQELRQVKRQEENYDQQVEMSLQDEDECDVYILTKVSDILHSLFSTYKEKILPWFEQLLPLIVNLICSSRPWPDRQWGLCIFDDIIEHCSPTSFKYVEYFRWPMLLNMRDNNPEVRQAAAYGLGVMAQFGGDDYRSLCSEAVPLLVKVIKCANSKTKKNVIATENCISAIGKILKFKPNCVNVDEVLPHWLSWLPLHEDKEEAIQTLSFLCDLIESNHPVVIGPNNSNLPKIISIIAEGKINETINYEDPCAKRLANVVRQVQTSEDLWLECVSQLDDEQQEALQELLNFA [RANBP6] | 0.799 | 0.825 | -0.0197 | -0.132 | 49.9 °C | 51.5 °C |
| MAATLDLKSKEEKDAELDKRIEALRRKNEALIRRYQEIEEDRKKAELEGVAVTAPRKGRSVEKENVAVESEKNLGPSRRSPGTPRPPGASKGGRTPPQQGGRAGMGRASRSWEGSPGEQPRGGGAGGRGRRGRGRGSPHLSGAGDTSISDRKSKEWEERRRQNIEKMNEEMEKIAEYERNQREGVLEPNPVRNFLDDPRRRSGPLEESERDRREESRRHGRNWGGPDFERVRCGLEHERQGRRAGLGSAGDMTLSMTGRERSEYLRWKQEREKIDQERLQRHRKPTGQWRREWDAEKTDGMFKDGPVPAHEPSHRYDDQAWARPPKPPTFGEFLSQHKAEASSRRRRKSSRPQAKAAPRAYSDHDDRWETKEGAASPAPETPQPTSPETSPKETPMQPPEIPAPAHRPPEDEGEENEGEEDEEWEDISEDEEEEEIEVEEGDEEEPAQDHQAPEAAPTGIPCSEQAHGVPFSPEEPLLEPQAPGTPSSPFSPPSGHQPVSDWGEEVELNSPRTTHLAGALSPGEAWPFESV [CCDC9] | 3.28 | 2.57 | -0.239 | 0.231 | 56.3 °C | 56.3 °C |
| MAATLLAARGAGPAPAWGPEAFTPDWESREVSTGTTIMAVQFDGGVVLGADSRTTTGSYIANRVTDKLTPIHDRIFCCRSGSAADTQAVADAVTYQLGFHSIELNEPPLVHTAASLFKEMCYRYREDLMAGIIIAGWDPQEGGQVYSVPMGGMMVRQSFAIGGSGSSYIYGYVDATYREGMTKEECLQFTANALALAMERDGSSGGVIRLAAIAESGVERQVLLGDQIPKFAVATLPPA [PSMB6] | -1.97 | -2.64 | 0.119 | -0.103 | 59 °C | 59.6 °C |
| MAAVATCGSVAASTGSAVATASKSNVTSFQRRGPRASVTNDSGPRLVSIAGTRPSVRNGQLLVSTGLPALDQLLGGGLAVGTVLLIEEDKYNIYSPLLFKYFLAEGIVNGHTLLVASAKEDPANILQELPAPLLDDKCKKEFDEDVYNHKTPESNIKMKIAWRYQLLPKMEIGPVSSSRFGHYYDASKRMPQELIEASNWHGFFLPEKISSTLKVEPCSLTPGYTKLLQFIQNIIYEEGFDGSNPQKKQRNILRIGIQNLGSPLWGDDICCAENGGNSHSLTKFLYVLRGLLRTSLSACIITMPTHLIQNKAIIARVTTLSDVVVGLESFIGSERETNPLYKDYHGLIHIRQIPRLNNLICDESDVKDLAFKLKRKLFTIERLHLPPDLSDTVSRSSKMDLAESAKRLGPGCGMMAGGKKHLDF [ELP4] | 0.169 | -0.665 | 0.226 | -0.017 | 53.8 °C | 55.4 °C |
| MAAVKDSCGKGEMATGNGRRLHLGIPEAVFVEDVDSFMKQPGNETADTVLKKLDEQYQKYKFMELNLAQKKRRLKGQIPEIKQTLEILKYMQKKKESTNSMETRFLLADNLYCKASVPPTDKVCLWLGANVMLEYDIDEAQALLEKNLSTATKNLDSLEEDLDFLRDQFTTTEVNMARVYNWDVKRRNKDDSTKNKA [VBP1] | -3.96 | -5.3 | 0.453 | 0.513 | 53.1 °C | 53.4 °C |
| MAAVWQQVLAVDARYNAYRTPTFPQFRTQYIRRRSQLLRENAKAGHPPALRRQYLRLRGQLLGQRYGPLSEPGSARAYSNSIVRSSRTTLDRMEDFEDDPRALGARGHRRSVSRGSYQLQAQMNRAVYEDRPPGSVVPTSAAEASRAMAGDTSLSENYAFAGMYHVFDQHVDEAVPRVRFANDDRHRLACCSLDGSISLCQLVPAPPTVLRVLRGHTRGVSDFAWSLSNDILVSTSLDATMRIWASEDGRCIREIPDPDSAELLCCTFQPVNNNLTVVGNAKHNVHVMNISTGKKVKGGSSKLTGRVLALSFDAPGRLLWAGDDRGSVFSFLFDMATGKLTKAKRLVVHEGSPVTSISARSWVSREARDPSLLINACLNKLLLYRVVDNEGTLQLKRSFPIEQSSHPVRSIFCPLMSFRQGACVVTGSEDMCVHFFDVERAAKAAVNKLQGHSAPVLDVSFNCDESLLASSDASGMVIVWRREQK [WDR13] | 0.118 | 0.204 | 0.0237 | -0.174 | 53.2 °C | 53 °C |
| MAAWKSWTALRLCATVVVLDMVVCKGFVEDLDESFKENRNDDIWLVDFYAPWCGHCKKLEPIWNEVGLEMKSIGSPVKVGKMDATSYSSIASEFGVRGYPTIKLLKGDLAYNYRGPRTKDDIIEFAHRVSGALIRPLPSQQMFEHMQKRHRVFFVYVGGESPLKEKYIDAASELIVYTYFFSASEEVVPEYVTLKEMPAVLVFKDETYFVYDEYEDGDLSSWINRERFQNYLAMDGFLLYELGDTGKLVALAVIDEKNTSVEHTRLKSIIQEVARDYRDLFHRDFQFGHMDGNDYINTLLMDELTVPTVVVLNTSNQQYFLLDRQIKNVEDMVQFINNILDGTVEAQGGDSILQRLKRIVFDAKSTIVSIFKSSPLMGCFLFGLPLGVISIMCYGIYTADTDGGYIEERYEVSKSENENQEQIEESKEQQEPSSGGSVVPTVQEPKDVLEKKKD [TMX3] | 0.827 | 3.44 | 0.2 | -0.0543 | 54.5 °C | 54.3 °C |
| MAAYSYRPGPGAGPGPAAGAALPDQSFLWNVFQRVDKDRSGVISDTELQQALSNGTWTPFNPVTVRSIISMFDRENKAGVNFSEFTGVWKYITDWQNVFRTYDRDNSGMIDKNELKQALSGFGYRLSDQFHDILIRKFDRQGRGQIAFDDFIQGCIVLQRLTDIFRRYDTDQDGWIQVSYEQYLSMVFSIV [PDCD6] | 2.71 | 2.81 | 0.15 | 0.26 | 49.3 °C | 50.5 °C |
| MACGFRRAIACQLSRVLNLPPENLITSISAVPISQKEEVADFQLSVDSLLEKDNDHSRPDIQVQAKRLAEKLRCDTVVSEISTGQRTVNFKINRELLTKTVLQQVIEDGSKYGLKSELFSGLPQKKIVVEFSSPNVAKKFHVGHLRSTIIGNFIANLKEALGHQVIRINYLGDWGMQFGLLGTGFQLFGYEEKLQSNPLQHLFEVYVQVNKEAADDKSVAKAAQEFFQRLELGDVQALSLWQKFRDLSIEEYIRVYKRLGVYFDEYSGESFYREKSQEVLKLLESKGLLLKTIKGTAVVDLSGNGDPSSICTVMRSDGTSLYATRDLAAAIDRMDKYNFDTMIYVTDKGQKKHFQQVFQMLKIMGYDWAERCQHVPFGVVQGMKTRRGDVTFLEDVLNEIQLRMLQNMASIKTTKELKNPQETAERVGLAALIIQDFKGLLLSDYKFSWDRVFQSRGDTGVFLQYTHARLHSLEETFGCGYLNDFNTACLQEPQSVSILQHLLRFDEVLYKSSQDFQPRHIVSYLLTLSHLAAVAHKTLQIKDSPPEVAGARLHLFKAVRSVLANGMKLLGITPVCRM [RARS2] | -0.261 | -0.261 | -0.144 | -0.141 | 51.7 °C | 50.8 °C |
| MACSIVQFCYFQDLQAARDFLFPHLREEILSGALRRDPSKSTDWEDDGWGAWEENEPQEPEEEGNTCKTQKTSWLQDCVLSLSPTNDLMVIAREQKAVFLVPKWKYSDKGKEEMQFAVGWSGSLNVEEGECVTSALCIPLASQKRSSTGRPDWTCIVVGFTSGYVRFYTENGVLLLAQLLNEDPVLQLKCRTYEIPRHPGVTEQNEELSILYPAAIVTIDGFSLFQSLRACRNQVAKAAASGNENIQPPPLAYKKWGLQDIDTIIDHASVGIMTLSPFDQMKTASNIGGFNAAIKNSPPAMSQYITVGSNPFTGFFYALEGSTQPLLSHVALAVASKLTSALFNAASGWLGWKSKHEEEAVQKQKPKVEPATPLAVRFGLPDSRRHGESICLSPCNTLAAVTDDFGRVILLDVARGIAIRMWKGYRDAQIGWIQTVEDLHERVPEKADFSPFGNSQGPSRVAQFLVIYAPRRGILEVWSTQQGPRVGAFNVGKHCRLLYPGYKIMGLNNVTSQSWQPQTYQICLVDPVSGSVKTVNVPFHLALSDKKSERAKDMHLVKKLAALLKTKSPNLDLVETEIKELILDIKYPATKKQALESILASERLPFSCLRNITQTLMDTLKSQELESVDEGLLQFCANKLKLLQLYESVSQLNSLDFHLDTPFSDNDLALLLRLDEKELLKLQALLEKYKQENTRTNVRFSDDKDGVLPVKTFLEYLEYEKDVLNIKKISEEEYVALGSFFFWKCLHGESSTEDMCHTLESAGLSPQLLLSLLLSVWLSKEKDILDKPQSICCLHTMLSLLSKMKVAIDETWDSQSVSPWWQQMRTACIQSENNGAALLSAHVGHSVAAQISNNMTEKKFSQTVLGADSEALTDSWEALSLDTEYWKLLLKQLEDCLILQTLLHSKGNTQTSKVSSLQAEPLPRLSVKKLLEGGKGGIADSVAKWIFKQDFSPEVLKLANEERDAENPDEPKEGVNRSFLEVSEMEMDLGAIPDLLHLAYEQFPCSLELDVLHAHCCWEYVVQWNKDPEEARFFVRSIEHLKQIFNAHVQNGIALMMWNTFLVKRFSAATYLMDKVGKSPKDRLCRRDVGMSDTAMTSFLGSCLDLLQILMEADVSRDEIQVPVLDTEDAWLSVEGPISIVELALEQKHIHYPLVEHHSILCSILYAVMRFSLKTVKPLSLFDSKGKNAFFKDLTSIQLLPSGEMDPNFISVRQQFLLKVVSAAVQAQHSATKVKDPTEEATPTPFGKDQDWPALAVDLAHHLQVSEDVVRRHYVGELYNYGVDHLGEEAILQVHDKEVLASQLLVLTGQRLAHALLHTQTKEGMELLARLPPTLCTWLKAMDPQDLQNTEVPIATTAKLVNKVIELLPEKHGQYGLALHLIEAVEAISLPSL [RAB3GAP2] | 1.1 | 1.85 | 0.0196 | -0.143 | 48.7 °C | 49.2 °C |
